Experimental findings from patent publication US20230374148A1, “BINDING MOLECULES THAT MULTIMERISE CD45” (UCB BIOPHARMA SRL, priority 2020, published 2023) are described below.

Like-named read-outs stand apart in the source and are kept apart here.

Assay [1] concerns the target T1, human CD45 on cells (PBMC, whole blood cells, macrophages, leukaemia and lymphoma cell lines) (human, UniProt P08575 26-1306).
T1 sequence: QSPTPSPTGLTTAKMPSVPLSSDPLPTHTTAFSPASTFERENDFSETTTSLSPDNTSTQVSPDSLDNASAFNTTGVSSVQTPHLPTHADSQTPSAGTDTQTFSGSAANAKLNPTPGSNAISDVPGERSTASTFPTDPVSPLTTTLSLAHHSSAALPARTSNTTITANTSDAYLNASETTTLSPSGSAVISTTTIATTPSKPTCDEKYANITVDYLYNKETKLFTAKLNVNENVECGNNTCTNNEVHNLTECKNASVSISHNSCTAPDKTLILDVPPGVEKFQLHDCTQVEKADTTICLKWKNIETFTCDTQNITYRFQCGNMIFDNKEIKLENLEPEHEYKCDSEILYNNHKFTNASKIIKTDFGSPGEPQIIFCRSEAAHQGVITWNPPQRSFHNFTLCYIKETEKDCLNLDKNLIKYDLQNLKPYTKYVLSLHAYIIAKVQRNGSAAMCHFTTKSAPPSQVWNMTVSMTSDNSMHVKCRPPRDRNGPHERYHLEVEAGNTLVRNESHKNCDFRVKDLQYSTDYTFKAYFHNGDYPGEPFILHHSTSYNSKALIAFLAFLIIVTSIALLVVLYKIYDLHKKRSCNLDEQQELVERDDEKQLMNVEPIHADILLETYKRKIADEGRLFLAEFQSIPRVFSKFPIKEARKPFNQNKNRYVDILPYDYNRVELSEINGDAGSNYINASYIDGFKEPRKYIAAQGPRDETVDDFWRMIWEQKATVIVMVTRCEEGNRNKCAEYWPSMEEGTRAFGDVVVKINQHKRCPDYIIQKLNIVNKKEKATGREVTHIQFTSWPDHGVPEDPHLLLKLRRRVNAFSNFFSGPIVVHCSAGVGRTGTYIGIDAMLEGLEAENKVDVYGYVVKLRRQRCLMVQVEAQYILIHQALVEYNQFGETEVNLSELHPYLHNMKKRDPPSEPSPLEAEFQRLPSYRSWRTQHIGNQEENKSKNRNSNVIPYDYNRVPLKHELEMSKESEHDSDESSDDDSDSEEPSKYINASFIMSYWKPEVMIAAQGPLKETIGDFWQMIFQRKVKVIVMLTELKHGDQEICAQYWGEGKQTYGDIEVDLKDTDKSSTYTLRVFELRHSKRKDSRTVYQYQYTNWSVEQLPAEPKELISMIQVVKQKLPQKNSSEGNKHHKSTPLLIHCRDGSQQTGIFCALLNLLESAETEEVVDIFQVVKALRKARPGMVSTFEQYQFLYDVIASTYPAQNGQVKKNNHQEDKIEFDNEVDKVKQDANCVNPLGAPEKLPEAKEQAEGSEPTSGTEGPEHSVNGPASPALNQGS
The experiment in a line: cell-based or functional assay.

A further assay deals with T2, CD45 D1-D4 (Homo sapiens, UniProt P08575).
T2 construct: extracellular domain of CD45 (UniProtKB—P08575, residue positions 225-573); TEV cleavage site (C); 10-His tag (C); made in house; host or cells: HEK293
T2 sequence (P08575 225-573): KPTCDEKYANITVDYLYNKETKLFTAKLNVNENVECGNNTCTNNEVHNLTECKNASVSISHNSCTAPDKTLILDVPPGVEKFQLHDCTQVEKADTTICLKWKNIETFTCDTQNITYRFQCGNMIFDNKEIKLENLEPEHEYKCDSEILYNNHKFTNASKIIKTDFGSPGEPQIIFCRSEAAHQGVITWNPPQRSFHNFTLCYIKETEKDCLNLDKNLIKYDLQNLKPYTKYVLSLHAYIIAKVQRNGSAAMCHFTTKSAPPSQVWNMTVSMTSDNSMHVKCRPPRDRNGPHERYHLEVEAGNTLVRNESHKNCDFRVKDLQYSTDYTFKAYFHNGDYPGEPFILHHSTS
The experiment in a line: Surface plasmon resonance (Biacore) affinity of Fabs. The assay is classed as binding. The conditions noted are these: 25° C.; for Ka: association constant, CD45 D1-D4 50 nM to 0.05 nM. The protocol:
Surface plasmon resonance (SPR) experiments were carried out at 25° C. on a Biacore 3000 system using CM5 sensor chips (GE Healthcare Bio-Sciences AB, Uppsala, Sweden) and HBS-EP running buffer (10 mM HEPES, 150 mM NaCl, EDTA 2 mM and 0.005% (v/v) P20, pH 7.4). 4133 rabbit Fab and 6294 mouse Fab were captured using polyclonal goat F(ab)2 fragment anti-rabbit F(ab)2, (Jackson Labs product code #111-006-047) and polyclonal goat F(ab)2 fragment anti-mouse F(ab)2, (Jackson Labs product code #115-006-072), respectively. Covalent immobilization of the capturing antibody was achieved by standard amine coupling chemistry to a level of 1000-3000 response units (RU).
CD45 D1-D4 was titrated over the captured purified antibody from 50 nM to 0.05 nM. Each assay cycle consisted of first capturing the antibody Fab fragment using a 1-min injection at a flow rate of 10 μl/min, followed by an association phase consisting of a 3-min injection of CD45 D1-D4 at a flow rate of 30 μl/min. The subsequent dissociation phase was monitored for at least 3 min. After each cycle, the capture surface was regenerated at a flow rate of 10 μl/min with a 1-min injection of 40 mM HCl followed by a 30-sec injection of 5 mM NaOH. A blank flow-cell was used for reference subtraction and buffer-blank injections were included to subtract instrument noise and drift. Kinetic parameters were determined using BIAevaluation software (version 4.1.1).
(In general: SPR reads the build-up and loss of mass on a sensor chip optically.)

B1: 4133-6294 IgG4P FALA Knob-in-Hole (bispecific antibody)
heavy 1: QEQLVESGGGLVQPEGSLTLTCTASGFSFSGNYYMCWVRQAPGKGLEWIGCLYTGSSGSTYYASWAKGRFTISKTSSTTVTLQMTSLTAADTATYFCARDLGYEIDGYGGLWGQGTLVTVSSASTKGPSVFPLAPCSRSTSESTAALGCLVKDYFPEPVTVSWNSGALTSGVHTFPAVLQSSGLYSLSSVVTVPSSSLGTKTYTCNVDHKPSNTKVDKRVESKYGPPCPPCPSAPEAAGGPSVFLFPPKPKDTLMISRTPEVTCVVVDVSQEDPEVQFNWYVDGVEVHNAKTKPREEQFNSTYRVVSVLTVLHQDWLNGKEYKCKVSNKGLPSSIEKTISKAKTGQPREPQVYTLPPSQEEMTKNQVSLWCLVKGFYPSDIAVEWESNGQPENNYKTTPPVLDSDGSFFLYSRLTVDKSRWQEGNVFSCSVMHEALHNHYTQKSLSLSLGK
heavy 2: EVQLVESGAELARPGASVKMSCKASGYTFTSYTMHWVKQRPGQGLEWIGYINPSSGYTEYNQKFKDKTTLTADKSSSTAYLQLSSLTSEDSAVYYCARVGDGFYPSWLAYWGQGTLVTVSSASTKGPSVFPLAPCSRSTSESTAALGCLVKDYFPEPVTVSWNSGALTSGVHTFPAVLQSSGLYSLSSVVTVPSSSLGTKTYTCNVDHKPSNTKVDKRVESKYGPPCPPCPAPEAAGGPSVFLFPPKPKDTLMISRTPEVTCVVVDVSQEDPEVQFNWYVDGVEVHNAKTKPREEQFNSTYRVVSVLTVLHQDWLNGKEYKCKVSNKGLPSSIEKTISKAKGQPREPQVYTLPPSQEEMTKNQVSLSCAVKGFYPSDIAVEWESNGQPENNYKTTPPVLDSDGSFFLVSRLTVDKSRWQEGNVFSCSVMHEALHNHYTQKSLSLSLGK
light 1: AQVLTQTPSPVSAVVGGTVSISCQASQSVYNNNNLSWYQQKPGQPPKLLIYDASKLASGVPSRFKGSGSGTQFTLTISGVQCDDAATYYCLGGYYSSGWYFAFGGGTKVVVKRTVAAPSVFIFPPSDEQLKSGTASVVCLLNNFYPREAKVQWKVDNALQSGNSQESVTEQDSKDSTYSLSSTLTLSKADYEKHKVYACEVTHQGLSSPVTKSFNRGEC
light 2: DIQMTQSPKFLLVSAGDRVTITCKASQSVRNDVAWYQQKPGQSPKLLIFYASKRYTGVPDRFTGSGYGTDFTFTISTVQAEDLAVYFCQQDYSSPTTFGGGTKLEIKRTVAAPSVFIFPPSDEQLKSGTASVVCLLNNFYPREAKVQWKVDNALQSGNSQESVTEQDSKDSTYSLSSTLTLSKADYEKHKVYACEVTHQGLSSPVTKSFNRGEC
With B1, in assay [1], the “EC50 of reduction of lymphocytes in PBMC, 24 h (UCB Cone-802)” value was 0.09 nM and the “EC50 of reduction of lymphocytes in PBMC, 24 h (UCB Cone-811)” value worked out at 0.17 nM.

B2: 6294 Fab: Fab fragment of mouse anti-CD45 antibody 6294 (antibody, V domains shown)
VH: EVQLVESGAELARPGASVKMSCKASGYTFTSYTMHWVKQRPGQGLEWIGYINPSSGYTEYNQKFKDKTTLTADKSSSTAYLQLSSLTSEDSAVYYCARVGDGFYPSWLAYWGQGTLVTVSS
VL: DIQMTQSPKFLLVSAGDRVTITCKASQSVRNDVAWYQQKPGQSPKLLIFYASKRYTGVPDRFTGSGYGTDFTFTISTVQAEDLAVYFCQQDYSSPTTFGGGTKLEIK
As to B2, the Kd with CD45 D1-D4 (SPR, read-out: affinity) is 0.085 nM. Moreover, in the assay with CD45 D1-D4 (captured Fab), the “Ka” value was 2.6e+06 M⁻¹ s⁻¹ and the “Dissociation rate constant koff” value came out at 0.00022 s⁻¹.

B3: 4133 Fab: Fab fragment of rabbit anti-CD45 antibody 4133 (antibody)
heavy: QEQLVESGGGLVQPEGSLTLTCTASGFSFSGNYYMCWVRQAPGKGLEWIGCLYTGSSGSTYYASWAKGRFTISKTSSTTVTLQMTSLTAADTATYFCARDLGYEIDGYGGLWGQGTLVTVSSGQPKAPSVFPLAPCCGDTPSSTVTLGCLVKGYLPEPVTVTWNSGTLTNGVRTFPSVRQSSGLYSLSSVVSVTSSSQPVTCNVAHPATNTKVDKTVAPSTCSKP
light: AQVLTQTPSPVSAVVGGTVSISCQASQSVYNNNNLSWYQQKPGQPPKLLIYDASKLASGVPSRFKGSGSGTQFTLTISGVQCDDAATYYCLGGYYSSGWYFAFGGGTKVVVKRTPVAPTVLIFPPAADQVATGTVTIVCVANKYFPDVTVTWEVDGTTQTTGIENSKTPQNSADCTYNLSSTLTLTSTQYNSHKEYTCKVTQGTTSVVQSFNRGDC
In the case of B3, the Kd in the assay with CD45 D1-D4 (SPR, read-out: affinity) was 61 nM. Further, the Kd in the assay with CD45 D1-D4 (affinity constant, captured Fab, read-out: KD) came out at 61 nM. In addition, in the assay with CD45 D1-D4 (captured Fab), the “Ka” value was 570000 M⁻¹ s⁻¹ and the “Dissociation rate constant koff” value was 0.035 s⁻¹.
